Experiments:
[1] = target: GPC3 on the surface of hepatic cancer cell lines (SK-Hep1-GPC3 transfectant, HepG2, Huh7, Hep3B, SNU398) (human) (UniProt P51654); assay: FACS, SK-Hep1-GPC3 #9 cells; upper right panel
[2] = target: GPC3 on the surface of hepatic cancer cell lines (SK-Hep1-GPC3 transfectant, HepG2, Huh7, Hep3B, SNU398) (human) (UniProt P51654); assay: FACS, SK-Hep1-GPC3 cells; lower right panel
[3] = target: GPC3 on the surface of hepatic cancer cell lines (SK-Hep1-GPC3 transfectant, HepG2, Huh7, Hep3B, SNU398) (human) (UniProt P51654); assay: FACS, SK-Hep1-GPC3 #9 cells; lower left panel
[4] = target: GPC3 on the surface of hepatic cancer cell lines (SK-Hep1-GPC3 transfectant, HepG2, Huh7, Hep3B, SNU398) (human) (UniProt P51654); assay: FACS, HepG2 cells; lower right panel

- Mean, FL2-H [1]: 4.76
- Mean, FL2-H [2]: 3.49
- Mean, FL2-H [3]: 5.79
- Mean, FL2-H [4]: 2.87
Substance: hIgG (antibody)

— patent US20180346592A1
